Measured values: patent WO2023191079A1 (dated 2023)

Target: T1, SpyCatcher-GOx (fusion protein with SpyCatcher and glucose oxidase in this order from the N-terminus)
T1 construct: also called SpyCatcher-fused glucose oxidase; SpyCatcher fusion GOx
Assay: 5 uM each mixed, overnight at 4 C, SDS-PAGE

B1: scFv-ST (anti-CRP scFv antibody with SpyTag added) (scFv)
scFv: HMASQVQLQQSGAELVKPGASVKLSCTASGFNIKDYYMHWVKQRTEQGLEWIGRIDPEDGETKYAPKFQGKATITADTSSNTAYLQLSSLTSEDTAVYYCARGYYGSEAMDYWGQGTSLTVSSGGGGSGGGGSGGGGSTGSIVMTQSHKFMSTSVGDRVSITCKASQDVNTAVAWYQQKPGQSPKLLIYWASTRHTGVPDRFTGSGFGTDYTLTISSVQAEDLALYYCQQHYSTPWTFGGGTKLEIKRADAAPKLAAAGSGAHIVMVDAYKPTKAEQKLISEEDLNLGGGMRGSHHHHHH
- binding result: binds
